Data published in patent US20210047432A1 (DIACCURATE, published 2021).
One block for each binder: values may come before it.

Key:
[1] = target: T1, immune complex of #2B with sPLA2-GIB (human, UniProt P04054 23-148); assay: flow cytometry, antibody-antigen immune complex on CHO cells expressing the receptor
T1 construct: also called immune complexe of #2B; antibody-antigen immune complex
Description: (§1) Antibody-antigen immune complex were generated by co-incubation of 10 µg/ml of humanized antibodies and 5 μg/ml of sPLA2-GIB for 30 min at 37° C. Immune complexes were then incubated with 1×10⁵ CHO cells stably expressing human FcγRs for 30 min on ice. The cells were then washed, detached, fixed, and analyzed by flow cytometry (FACSCalibur; BD Biosciences).
(§2) The binding of monomeric #2B, #2B1 and #2B2 to human FcγRs was tested by flow cytometry by incubating the mAbs with CHO cells stably expressing human FcγRI, FcγRIIA (H131), FcγRIIA(R131), FcγRIIB, FcγRIIIA(F176), FcγRIIIA(V176), FcγRIIIB(NA1), FcγRIIIB(NA2), and FcγRIIIB(SH), (REF P. Bruhns). As presented in FIG. 9, #2B is binding to hFcγRI and hFcγRIIIA(V176) only, whereas no monomeric binding of #2B1 and #2B2 to all tested hFcγRs was observed. Antibody-antigen immune complex was tested by first incubating the mAb with the antigen and then, incubating the immune complexes formed with CHO cells stably expressing human FcγRs. The immune complexe of #2B is binding to all tested hFcγRs, except hFcγRIIB (FIG. 10). Weak binding is observed for immune complex of #2B1 to hFcγRIIIA(V176) (data not shown), whereas no immune complex binding of #2B2 to any tested hFcγRs (data not shown).

[2] = target: immune complex of #2B2 with sPLA2-GIB (human, UniProt P04054 23-148); assay: as above
Chain of immune complex of #2B2 with sPLA2-GIB (heavy, as listed by the source, chain 1 of 3): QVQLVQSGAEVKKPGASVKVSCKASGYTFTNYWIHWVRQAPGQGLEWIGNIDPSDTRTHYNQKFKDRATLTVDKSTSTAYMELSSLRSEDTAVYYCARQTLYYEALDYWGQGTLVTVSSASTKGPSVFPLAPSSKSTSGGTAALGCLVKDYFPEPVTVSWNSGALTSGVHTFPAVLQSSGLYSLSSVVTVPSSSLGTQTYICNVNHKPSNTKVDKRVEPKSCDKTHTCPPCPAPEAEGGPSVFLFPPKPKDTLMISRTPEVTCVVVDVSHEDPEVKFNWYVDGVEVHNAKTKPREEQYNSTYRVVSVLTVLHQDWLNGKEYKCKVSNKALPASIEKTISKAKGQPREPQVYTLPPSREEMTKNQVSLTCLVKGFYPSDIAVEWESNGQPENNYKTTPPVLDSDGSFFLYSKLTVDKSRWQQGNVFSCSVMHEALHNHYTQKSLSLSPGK
Chain of immune complex of #2B2 with sPLA2-GIB (light, as listed by the source, chain 2 of 3): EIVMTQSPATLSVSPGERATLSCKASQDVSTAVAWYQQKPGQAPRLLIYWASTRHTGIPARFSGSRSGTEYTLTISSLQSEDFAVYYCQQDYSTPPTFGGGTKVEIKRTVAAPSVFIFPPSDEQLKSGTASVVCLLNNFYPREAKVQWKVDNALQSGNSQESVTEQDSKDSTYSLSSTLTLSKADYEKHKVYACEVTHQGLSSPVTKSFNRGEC
Chain of immune complex of #2B2 with sPLA2-GIB (P04054 23-148, chain 3 of 3): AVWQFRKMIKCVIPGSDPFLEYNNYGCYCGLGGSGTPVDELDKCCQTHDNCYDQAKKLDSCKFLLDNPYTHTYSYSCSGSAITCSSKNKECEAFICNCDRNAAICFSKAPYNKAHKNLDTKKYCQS
Description: as §1, §2

[3] = target: T2, recombinant human sPLA2-GIB (mature secreted group IB pancreatic phospholipase A2) (human, UniProt P04054 23-148); assay: cell-based or functional assay
T2 sequence (P04054 23-148): as the sequence (P04054 23-148, chain 3 of 3) above

[4] = target: T2, recombinant human sPLA2-GIB (mature …); assay: SPR (BIAcore 2000), antibody captured on anti-mouse IgG surface, antigen in solution
Description: (§3) The affinity constants (KD) of the pro-sPLA2-IB and sPLA2-IB binding to the #14G9 antibody were determined by surface kinetics on a real-time biosensor surface plasmon resonance assay (BIAcore™). More specifically, the affinity of the antibodies for human pro-sPLA2-IB and sPLA2-IB was measured using a BIAcore® 2000. The antibody was captured on an anti-mouse IgG surface and exposed to various concentrations of recombinant pro-sPLA2-IB and sPLA2-IB protein. Kinetic analysis using BIAevaluation™ software was performed to obtain the association and dissociation rate constants.

[5] = target: T3, recombinant human pro-sPLA2-GIB (human, UniProt P04054 16-148); assay: as above
T3 construct: also called pro-sPLA2-IB; proPLA2-GIB
T3 sequence (P04054 16-148): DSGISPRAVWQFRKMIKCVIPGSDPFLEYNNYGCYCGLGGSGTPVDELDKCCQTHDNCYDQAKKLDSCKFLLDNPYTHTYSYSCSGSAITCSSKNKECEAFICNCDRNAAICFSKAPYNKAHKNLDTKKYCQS
Description: as §3

[6] = target: T2, recombinant human sPLA2-GIB (mature …); assay: competitive ELISA: constant antibody premixed with dilutions of soluble antigen, free antibody caught on antigen-coated plate
Description: (§4) Binding affinities of the antibodies to pro-sPLA2-IB and sPLA2-IB were measured by plate-based competition immunoassay. For the competition ELISA, briefly, constant amounts of antibody at different levels were premixed with serial dilutions of antigen protein, human sPLA2-IB or pro-sPLA2-IB, ranging from 0 to 10 µg/ml, and incubated for two hours at room temperature to reach pseudo-binding equilibrium between the antibody and antigen. These solutions were then transferred to 96-well sPLA2-IB or pro-sPLA2-IB pre-coated plates to allow the free-antibody in the mixtures to bind to plate-coated sPLA2-IB or pro-sPLA2-IB. The plates were typically coated with 30 to 100 ng of human sPLA2-IB or pro-sPLA2-IB protein in PBS solution overnight at 4° C. followed by BSA nonspecific blocking. After washing off excess antibody in solution, plate-bound antibodies were detected with an HRP-conjugated goat anti-mouse IgG or IgA polyclonal antibody reagent and developed using colorimetric substrate. The dependency of the signals on the concentrations of antigen in solution was analyzed with a 4-parameter fit analysis using Prism™ software (Graph Pad) and reported as IC50.

[7] = target: T3, recombinant human pro-sPLA2-GIB; assay: as above
Description: as §4

[8] = target: T2, recombinant human sPLA2-GIB (mature …); assay: indirect ELISA: antigen coated on the plate, #14G9 mAb titrated (x axis mAb, Log M, -9.5 to -6.5), OD450 nm readout
Description: (§5) Microplate wells were typically coated with 100 ng of recombinant human sPLA2-X, sPLA2-IB or pro-sPLA2-IB in PBS pH 7.5, overnight at 4° C. Sample wells were washed three times with PBS containing 0.05% Tween 20. After final washing, sample wells were treated with blocking solution containing 1% bovine serum albumin (BSA) in PBS buffer for 60 min at room temperature. Following washing with PBS containing 0.05% Tween 20, increasing amounts (10 ng/mL up to 3 μg/mL) of #14G9 mAb were added to antigen-coated wells. and incubated for 120 min at room temperature. Following washing with PBS containing 0.05% Tween 20, the binding of #14G9 mAb was detected with an HRP-conjugated goat anti-mouse IgG or IgA polyclonal antibody reagent and developed using colorimetric substrate. The dependency of the signals on the concentrations of antigen in solution was analyzed with a 4-parameter fit analysis using Prism™ software (Graph Pad) and reported as EC50.

[9] = target: T3, recombinant human pro-sPLA2-GIB; assay: indirect ELISA: antigen coated on the plate, #14G9 mAb titrated (x axis mAb, Log M, -9.5 to -6.5), OD450 nm readout; the curve reaches only OD450 about 1.6 at the highest concentration, no upper plateau
Description: as §5

T1 sequence (heavy, as listed by the source, chain 1 of 3): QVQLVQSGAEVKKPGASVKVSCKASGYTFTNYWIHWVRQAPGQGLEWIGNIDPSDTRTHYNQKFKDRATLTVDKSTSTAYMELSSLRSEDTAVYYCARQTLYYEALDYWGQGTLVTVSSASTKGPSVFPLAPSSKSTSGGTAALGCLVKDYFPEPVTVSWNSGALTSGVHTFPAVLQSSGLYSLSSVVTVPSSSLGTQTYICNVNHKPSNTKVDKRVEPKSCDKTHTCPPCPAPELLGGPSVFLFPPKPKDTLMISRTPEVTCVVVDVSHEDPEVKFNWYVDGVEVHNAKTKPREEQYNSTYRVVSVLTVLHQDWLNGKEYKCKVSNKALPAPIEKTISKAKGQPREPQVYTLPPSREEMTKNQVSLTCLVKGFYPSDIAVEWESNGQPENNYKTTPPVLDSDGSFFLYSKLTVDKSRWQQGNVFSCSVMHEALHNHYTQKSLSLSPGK
T1 sequence (light, as listed by the source, chain 2 of 3): as the sequence (light, as listed by the source, chain 2 of 3) above
T1 sequence (P04054 23-148, chain 3 of 3): as the sequence (P04054 23-148, chain 3 of 3) above

binding result [1]: no binding
binding result [2]: no binding
B1: human FcγRIIB (receptor, UniProt P31994 43-310, looked up)
chain: TPAAPPKAVLKLEPQWINVLQEDSVTLTCRGTHSPESDSIQWFHNGNLIPTHTQPSYRFKANNNDSGEYTCQTGQTSLSDPVHLTVLSEWLVLQTPHLEFQEGETIVLRCHSWKDKPLVKVTFFQNGKSKKFSRSDPNFSIPQANHSHSGDYHCTGNIGYTLYSSKPVTITVQAPSSSPMGIIVAVVTGIAVAAIVAAVVALIYCRKKRISALPGYPECREMGETLPEKPANPTNPDEADKVGAENTITYSLLMHPDALEEPDDQNRI
notes: whole, on cells; also called hFcγRIIB

EC50 for the restoration of the sPLA2-IB effect on IL-7 induced phosphoSTAT5 nuclear translocation in human CD4 T cells (75 nM sPLA2-GIB) [3]: 2.2 ng/mL
inhibition of sPLA2-IB enzymatic activity, EC50 [3]: 2.3 nM
Kd [4]: 0.34 nM
Kd [5]: 174 nM
IC50 [6]: 1 nM
IC50 [7]: 109 nM
EC50 [8]: 6 nM
EC50 [9]: 158 nM
B2: #14G9 mAb (mouse anti-sPLA2-GIB monoclonal antibody) (antibody, V domains shown)
VH: QVQLQQPGAELVKPGASVKLSCKASGYTFTNYWIHWVKRRPGQGLEWIGNIDPSDTRTHYNQKFKDKATLAVDKSSSTAYMQLSSLTSEDSAVFYCARQTLYYEALDYWGQGTTLTVSS
VL: DIVMTQSHKLMSTSVGDRVSITCKASQDVSTAVAWYQEKPGQSPKLLIYWASTRHTGVPNRFTGSRSGTDYTLTISSVQAEDLALYYCQQDYSTPPTFGAGTKLELKR
notes: Mouse hybridoma antibody; also called monoclonal antibody 14G9
